Test results: patent US20150344570A1 (published 2015)

T1: FcγRIIb, extracellular domain with C-terminal His tag (human, UniProt P31994 43-217)
T1 construct: extracellular domain; made in FreeStyle293 cells; analyte in the Biacore assay; also called 2b; FcgRIIb
T1 sequence (looked up): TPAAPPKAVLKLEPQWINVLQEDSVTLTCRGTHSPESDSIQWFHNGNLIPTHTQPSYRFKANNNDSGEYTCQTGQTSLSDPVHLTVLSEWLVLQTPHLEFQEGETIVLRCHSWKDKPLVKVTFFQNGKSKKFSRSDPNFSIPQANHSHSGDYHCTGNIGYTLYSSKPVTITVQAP

T2: FcγRIIa R (FcγRIIa allotype with Arg at position 131), extracellular domain with C-terminal His tag (human, UniProt P12318 34-217)
T2 construct: extracellular domain; made in FreeStyle293 cells; analyte in the Biacore assay; also called FcγRIIa type R; 2aR
T2 sequence (looked up): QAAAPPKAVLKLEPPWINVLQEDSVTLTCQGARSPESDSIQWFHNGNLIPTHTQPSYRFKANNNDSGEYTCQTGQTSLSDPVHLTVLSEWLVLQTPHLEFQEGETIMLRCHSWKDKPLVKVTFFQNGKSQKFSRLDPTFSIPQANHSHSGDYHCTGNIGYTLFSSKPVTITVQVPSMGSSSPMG


What was measured:
[1] = molecular target: T1, FcγRIIb, extracellular domain with …; experiment: SPR (Biacore), antibody captured, FcγR analyte; vs GpH7-A5/GpH7-B3/GpL16-k0 = 100
Description: (§1) The heterodimerized antibodies He Abs in which one of the H chains was introduced with an alteration were assayed for their binding activities to each activating FcγR and inhibitory FcγR according to the method described in Example 4. […] The activating FcγRs in FIGS. 26, 27, 28, and 29 are FcγRIa, FcγRIIa (R), FcγRIIa (H), and FcγRIIIa, respectively.
(§2) Analysis of interaction between objective antibody and the FcγR was carried out using Biacore T100 (GE Healthcare). HBS-EP+ (GE Healthcare) was used as the running buffer, and the measurement temperature was set to 25° C. Chips produced by immobilizing the antigen peptide by the amine coupling method to a Series S Sencor Chip CM5 (GE Healthcare), or alternatively, chips produced by allowing preliminarily biotinylated antigen peptides to interact with and immobilize onto a Series S Sensor Chip SA (certified) (GE Healthcare) were used. Antibodies of interest were captured onto an antigen peptide-immobilized chip, and allowed to interact to each FcγR diluted with running buffer. To regenerate and repeatedly use the chip, the antibodies captured on the chip were washed off by reacting 10 mM glycine-HCl, pH 1.5.

[2] = molecular target: T2, FcγRIIa R (FcγRIIa allotype with Arg at …); experiment: as above
Description: as §1, §2

| Binder | He/Con_2b [1] | He/Con_2aR [2] |
| --- | --- | --- |
| GpH7-A5/GpH7-B3 variant S337_03V/GpL16-k0 (antibody, human IgG1, kappa, heterodimerized IgG1, mutation in one H chain only; also called He Ab) heavy 1: not shown heavy 2: not shown light: DIVMTQSPLSLPVTPGEPASISCQASESLVHSNRNTYLHWYLQKPGQSPQLLIYKVSNRFSGVPDRFSGSGSGTDFTLKISRVEAEDVGVYYCSQNTHVPPTFGQGTKVEIERTVAAPSVFIFPPSDEQLKSGTASVVCLLNNFYPREAKVQWKVDNALQSGNSQESVTEQDSKDSTYSLSSTLTLSKADYEKHKVYACEVTHQGLSSPVTKSFNRGEC | 98.9 relative (HeCon Ab = 100) | 106 relative (HeCon Ab = 100) |
| GpH7-A5/GpH7-B3 variant T335_06M/GpL16-k0 (antibody, human IgG1, kappa, heterodimerized IgG1, mutation in one H chain only; also called He Ab) heavy 1: not shown heavy 2: not shown light: DIVMTQSPLSLPVTPGEPASISCQASESLVHSNRNTYLHWYLQKPGQSPQLLIYKVSNRFSGVPDRFSGSGSGTDFTLKISRVEAEDVGVYYCSQNTHVPPTFGQGTKVEIERTVAAPSVFIFPPSDEQLKSGTASVVCLLNNFYPREAKVQWKVDNALQSGNSQESVTEQDSKDSTYSLSSTLTLSKADYEKHKVYACEVTHQGLSSPVTKSFNRGEC | 99.4 relative (HeCon Ab = 100) | 105 relative (HeCon Ab = 100) |
| GpH7-A5/GpH7-B3 variant S337_19Q/GpL16-k0 (antibody, human IgG1, kappa, heterodimerized IgG1, mutation in one H chain only; also called He Ab) heavy 1: not shown heavy 2: not shown light: DIVMTQSPLSLPVTPGEPASISCQASESLVHSNRNTYLHWYLQKPGQSPQLLIYKVSNRFSGVPDRFSGSGSGTDFTLKISRVEAEDVGVYYCSQNTHVPPTFGQGTKVEIERTVAAPSVFIFPPSDEQLKSGTASVVCLLNNFYPREAKVQWKVDNALQSGNSQESVTEQDSKDSTYSLSSTLTLSKADYEKHKVYACEVTHQGLSSPVTKSFNRGEC | 99.7 relative (HeCon Ab = 100) | 106 relative (HeCon Ab = 100) |
| GpH7-A5/GpH7-B3 variant Y296_10E/GpL16-k0 (antibody, human IgG1, kappa, heterodimerized IgG1, mutation in one H chain only; also called He Ab) heavy 1: not shown heavy 2: not shown light: DIVMTQSPLSLPVTPGEPASISCQASESLVHSNRNTYLHWYLQKPGQSPQLLIYKVSNRFSGVPDRFSGSGSGTDFTLKISRVEAEDVGVYYCSQNTHVPPTFGQGTKVEIERTVAAPSVFIFPPSDEQLKSGTASVVCLLNNFYPREAKVQWKVDNALQSGNSQESVTEQDSKDSTYSLSSTLTLSKADYEKHKVYACEVTHQGLSSPVTKSFNRGEC | 98 relative (HeCon Ab = 100) | 103 relative (HeCon Ab = 100) |
| GpH7-A5/GpH7-B3 variant S337_12R/GpL16-k0 (antibody, human IgG1, kappa, heterodimerized IgG1, mutation in one H chain only; also called He Ab) heavy 1: not shown heavy 2: not shown light: DIVMTQSPLSLPVTPGEPASISCQASESLVHSNRNTYLHWYLQKPGQSPQLLIYKVSNRFSGVPDRFSGSGSGTDFTLKISRVEAEDVGVYYCSQNTHVPPTFGQGTKVEIERTVAAPSVFIFPPSDEQLKSGTASVVCLLNNFYPREAKVQWKVDNALQSGNSQESVTEQDSKDSTYSLSSTLTLSKADYEKHKVYACEVTHQGLSSPVTKSFNRGEC | 99.5 relative (HeCon Ab = 100) | 107 relative (HeCon Ab = 100) |

Other lines, results leading:

| He/Con_2b [1] | He/Con_2aR [2] | Binder |
| --- | --- | --- |
| 86.3 relative (HeCon Ab = 100) | 102 relative (HeCon Ab = 100) | GpH7-A5/GpH7-B3 variant Y296_13S/GpL16-k0 (antibody, human IgG1, kappa, heterodimerized IgG1, mutation in one H chain only; also called He Ab) heavy 1: not shown heavy 2: not shown light: DIVMTQSPLSLPVTPGEPASISCQASESLVHSNRNTYLHWYLQKPGQSPQLLIYKVSNRFSGVPDRFSGSGSGTDFTLKISRVEAEDVGVYYCSQNTHVPPTFGQGTKVEIERTVAAPSVFIFPPSDEQLKSGTASVVCLLNNFYPREAKVQWKVDNALQSGNSQESVTEQDSKDSTYSLSSTLTLSKADYEKHKVYACEVTHQGLSSPVTKSFNRGEC |
| 96.7 relative (HeCon Ab = 100) | 104 relative (HeCon Ab = 100) | GpH7-A5/GpH7-B3 variant T335_01G/GpL16-k0 (antibody, human IgG1, kappa, heterodimerized IgG1, mutation in one H chain only; also called He Ab) heavy 1: not shown heavy 2: not shown light: DIVMTQSPLSLPVTPGEPASISCQASESLVHSNRNTYLHWYLQKPGQSPQLLIYKVSNRFSGVPDRFSGSGSGTDFTLKISRVEAEDVGVYYCSQNTHVPPTFGQGTKVEIERTVAAPSVFIFPPSDEQLKSGTASVVCLLNNFYPREAKVQWKVDNALQSGNSQESVTEQDSKDSTYSLSSTLTLSKADYEKHKVYACEVTHQGLSSPVTKSFNRGEC |
| 84.3 relative (HeCon Ab = 100) | 101 relative (HeCon Ab = 100) | GpH7-A5/GpH7-B3 variant Y296_07I/GpL16-k0 (antibody, human IgG1, kappa, heterodimerized IgG1, mutation in one H chain only; also called He Ab) heavy 1: not shown heavy 2: not shown light: DIVMTQSPLSLPVTPGEPASISCQASESLVHSNRNTYLHWYLQKPGQSPQLLIYKVSNRFSGVPDRFSGSGSGTDFTLKISRVEAEDVGVYYCSQNTHVPPTFGQGTKVEIERTVAAPSVFIFPPSDEQLKSGTASVVCLLNNFYPREAKVQWKVDNALQSGNSQESVTEQDSKDSTYSLSSTLTLSKADYEKHKVYACEVTHQGLSSPVTKSFNRGEC |
| 87.8 relative (HeCon Ab = 100) | 101 relative (HeCon Ab = 100) | GpH7-A5/GpH7-B3 variant Y296_06M/GpL16-k0 (antibody, human IgG1, kappa, heterodimerized IgG1, mutation in one H chain only; also called He Ab) heavy 1: not shown heavy 2: not shown light: DIVMTQSPLSLPVTPGEPASISCQASESLVHSNRNTYLHWYLQKPGQSPQLLIYKVSNRFSGVPDRFSGSGSGTDFTLKISRVEAEDVGVYYCSQNTHVPPTFGQGTKVEIERTVAAPSVFIFPPSDEQLKSGTASVVCLLNNFYPREAKVQWKVDNALQSGNSQESVTEQDSKDSTYSLSSTLTLSKADYEKHKVYACEVTHQGLSSPVTKSFNRGEC |
